The source of these data is patent US20180118789A1.

Test [1] addresses mouse melanocortin 1 receptor (mouse) (UniProt Q01727). Description: cell-based or functional assay.
The target of test [2] is mouse melanocortin 3 receptor (mouse) (UniProt P33033). Briefly: cell-based or functional assay.
mouse melanocortin 3 receptor (mouse), sequence (P33033 whole entry): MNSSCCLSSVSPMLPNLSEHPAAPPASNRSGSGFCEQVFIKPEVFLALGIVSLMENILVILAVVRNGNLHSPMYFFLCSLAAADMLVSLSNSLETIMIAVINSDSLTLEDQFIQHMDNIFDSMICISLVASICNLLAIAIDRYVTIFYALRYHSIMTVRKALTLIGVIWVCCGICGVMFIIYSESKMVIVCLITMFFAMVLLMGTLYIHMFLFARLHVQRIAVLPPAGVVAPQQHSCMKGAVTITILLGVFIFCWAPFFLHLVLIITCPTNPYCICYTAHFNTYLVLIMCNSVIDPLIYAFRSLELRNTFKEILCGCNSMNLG

mouse melanocortin 1 receptor (mouse), sequence (Q01727 whole entry): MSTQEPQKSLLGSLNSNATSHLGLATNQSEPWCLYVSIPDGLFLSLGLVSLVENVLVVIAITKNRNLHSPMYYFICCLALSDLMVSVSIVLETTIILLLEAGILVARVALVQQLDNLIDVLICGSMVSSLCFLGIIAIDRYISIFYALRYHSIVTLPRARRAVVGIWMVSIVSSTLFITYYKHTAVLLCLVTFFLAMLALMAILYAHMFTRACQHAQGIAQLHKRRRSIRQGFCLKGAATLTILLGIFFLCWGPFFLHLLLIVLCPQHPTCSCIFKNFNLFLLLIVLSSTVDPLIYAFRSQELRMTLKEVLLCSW

As to “NDP-MSH (4-Norleucine-7-D-Phenylalanine), Ac-Ser-Tyr-Ser-Nle-Glu-His-DPhe-Arg-Trp-Gly-Lys-Pro-Val-NH2 (peptide)”, the EC50 (nM), agonist, cAMP AlphaScreen in test [1] is 0.015 nM; in test [2], 0.09 nM.
